# Columns and labels:
# FXII-uPAR binding = FXII-uPAR binding (Homo sapiens, UniProt Q03405); test: Microscale thermophoresis of FXII-uPAR binding in absence or presence of FXII-derived inhibitory peptides; details: FIG. 2A
# Experimental: FIGS. 2A-D show the characterization of FXII-derived inhibitory peptides. […] FXII_fl: recombinant full length FXII: Combo: combination of IPP-DLA-LHV peptides, 10 μM each. * p=0.004 FXII_fl vs. Combo, 2-way ANOVA.
# The results provide insight on the structure of the non-catalytic region of FXII. These advances have also provided the structural details required to develop peptide antagonists. To this end, 3 peptides containing FXII amino acid residues implicated in uPAR binding were synthesized and termed “IPP” (corresponding to SEQ ID NO: 1), “DLA” (corresponding to SEQ ID NO: 2), and “LHV” (corresponding to SEQ ID NO: 3). The kinetics of peptide interference with FXII-uPAR binding was screened which yielded nanomolar affinity for each (FIG. 2A).
# uPAR [1] = biological target: T1, uPAR (Homo sapiens, UniProt Q03405); test: Hydroxyl radical footprinting (HRF) with LC-MS: free FXII vs FXII in complex with uPAR; format: binding
# Experimental: Briefly, free uPAR and human FXII protein samples were prepared with the final protein concentration of 2.5 μM and 3 μM, respectively (1:1.2 uPAR: FXII molar ratio). Free uPAR and FXII and FXII-uPAR complex were exposed to hydroxyl radicals for intervals of 0, 12, 20, and 40 milliseconds using the X-ray beam line. Next, the irradiated samples were reduced and alkylated with 10 mM and 25 mM of DTT and iodoacetamide, respectively. Subsequently, the samples were subjected to a trypsin and AspN digestion (1:10 enzyme to protein ratio) followed by liquid chromatography coupled with high-resolution mass spectrometry (LC-MS). The MS data were analyzed manually resulting in dose-response plots for each peptide. The HRF process introduces stable side chain oxidative modifications resulting in specific mass shifts, which were identified from the tandem mass spectrometry data. The selected ion chromatograms (SIC) were extracted and integrated for the un-oxidized and the oxidized forms of peptide ion (with particular m z). These peak area values were used to characterize reaction kinetics in the form of dose-response (DR) plots, which measure the loss of intact peptide as a function of the hydroxyl radical exposure. […] Differences in the rate of oxidation (called rate constant, RC) indicate the potential locations of the binding interface. MSI data for free and complex proteins were used to determine RC values for each peptide within the protein. Peptide location and the corresponding sequence are shown in columns 1 and 2, respectively. The third and fourth columns show the RC values for the free FXII protein and complex, respectively. The RC values were averaged from replicate experiments and the associated errors are shown next to each RC value.
# Target sequence in this assay (Q03405 23-305 limits assumed): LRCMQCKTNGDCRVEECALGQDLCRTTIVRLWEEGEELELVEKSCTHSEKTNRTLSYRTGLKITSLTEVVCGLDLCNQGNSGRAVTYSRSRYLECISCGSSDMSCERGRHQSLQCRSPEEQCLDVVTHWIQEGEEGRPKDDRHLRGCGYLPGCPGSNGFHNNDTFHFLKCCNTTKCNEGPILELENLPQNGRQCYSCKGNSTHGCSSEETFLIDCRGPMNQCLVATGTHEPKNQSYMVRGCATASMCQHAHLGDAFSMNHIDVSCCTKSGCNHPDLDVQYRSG
# [2] = biological target: T2, urokinase-type plasminogen activator receptor (uPAR; Plaur, Homo sapiens) (Homo sapiens, UniProt Q03405 23-305, limits assumed); test: peptide interference with FXII-uPAR binding, microscale thermophoresis
# T2 construct: also called human uPAR; human soluble uPAR
# T2 sequence (Q03405 23-305 limits assumed): as above
# uPAR [3] = biological target: T1, uPAR; test: Microscale thermophoresis of uPAR binding on site-directed FXII mutants (Ala substitutions); details: FIG. 1D
# Text: FIGS. 1A-D show the characterization of the FXII-uPAR binding interphase.
# Each variant was characterized in several assays including microscale thermophoresis. […] These findings explain, at least in part, why the FXII-uPAR interaction is not a constitutive process in vivo.
# Target sequence in this assay (Q03405 23-305): as the sequence (Q03405 23-305 limits assumed) above
# Chain of FXII-uPAR binding (Q03405 23-305 limits assumed): as above
molecule,measurement,setting,value
IPPWEAPK [listing 1 of 2 here],"affinity, peptide interference with FXII-uPAR binding",FXII-uPAR binding,nanomolar
DLAQCQTPTQAAPPTPVSPR [listing 1 of 2 here],"affinity, peptide interference with FXII-uPAR binding",FXII-uPAR binding,nanomolar
LHVPLMPAQPAPPK [listing 1 of 2 here],"affinity, peptide interference with FXII-uPAR binding",FXII-uPAR binding,nanomolar
IPPWEAPK [listing 2 of 2 here],"Modification rate, KFXII, S^−1 FXII free","uPAR [1]; site W4, FXII position 1-8",3.08 ± 0.25 S^−1
same,"Modification rate, KCOM, S^−1 FXII complex","uPAR [1]; site W4, FXII position 1-8, complex with human uPAR",3.08 ± 0.13 S^−1
DLAQCQTPTQAAPPTPVSPR [listing 2 of 2 here],"Modification rate, KFXII, S^−1 FXII free","uPAR [1]; site P285, FXII position 272-291",1.3 ± 0.061 S^−1
same,"Modification rate, KCOM, S^−1 FXII complex","uPAR [1]; site P285, FXII position 272-291, complex with human uPAR",0.87 ± 0.030 S^−1
same,"Modification rate, KFXII, S^−1 FXII free","uPAR [1]; site P287, FXII position 272-291",0.23 ± 0.021 S^−1
same,"Modification rate, KCOM, S^−1 FXII complex","uPAR [1]; site P287, FXII position 272-291, complex with human uPAR",0.11 ± 0.009 S^−1
same,"Modification rate, KFXII, S^−1 FXII free","uPAR [1]; site Q281, FXII position 272-291",0.97 ± 0.047 S^−1
same,"Modification rate, KCOM, S^−1 FXII complex","uPAR [1]; site Q281, FXII position 272-291, complex with human uPAR",0.53 ± 0.019 S^−1
same,"Modification rate, KFXII, S^−1 FXII free","uPAR [1]; site V288, FXII position 272-291",0.71 ± 0.04 S^−1
same,"Modification rate, KCOM, S^−1 FXII complex","uPAR [1]; site V288, FXII position 272-291, complex with human uPAR",0.46 ± 0.019 S^−1
LHVPLMPAQPAPPK [listing 2 of 2 here],"Modification rate, KFXII, S^−1 FXII free","uPAR [1]; site H293, FXII position 292-305",2.55 ± 0.30 S^−1
same,"Modification rate, KCOM, S^−1 FXII complex","uPAR [1]; site H293, FXII position 292-305, complex with human uPAR",1.82 ± 0.15 S^−1
same,"Modification rate, KFXII, S^−1 FXII free","uPAR [1]; site K305, FXII position 292-305",1.06 ± 0.063 S^−1
same,"Modification rate, KCOM, S^−1 FXII complex","uPAR [1]; site K305, FXII position 292-305, complex with human uPAR",0.58 ± 0.042 S^−1
same,"Modification rate, KFXII, S^−1 FXII free","uPAR [1]; site L296, FXII position 292-305",0.62 ± 0.054 S^−1
same,"Modification rate, KCOM, S^−1 FXII complex","uPAR [1]; site L296, FXII position 292-305, complex with human uPAR",0.29 ± 0.057 S^−1
same,"Modification rate, KFXII, S^−1 FXII free","uPAR [1]; site V294, FXII position 292-305",0.85 ± 0.093 S^−1
same,"Modification rate, KCOM, S^−1 FXII complex","uPAR [1]; site V294, FXII position 292-305, complex with human uPAR",0.79 ± 0.078 S^−1
DLAQCQTPTQAAPPTPVSPR (Synthesized FXII-derived peptide) [DLA peptide (DLAQCQTPTQAAPPTPVSPR)],binding result,[2],binds
W4A variant: zymogen FXII with single Ala substitution of W residue at position 4 (protein) IPPAEAPKEHKYKAEEHTVVLTVTGEPCHFPFQYHRQLYHKCTHKGRPGPQPWCATTPNFDQDQRWGYCLEPKKVKDHCSKHSPCQKGGTCVNMPSGPHCLCPQHLTGNHCQKEKCFEPQLLRFFHKNEIWYRTEQAAVARCQCKGPDAHCQRLASQACRTNPCLHGGRCLEVEGHRLCHCPVGYTGAFCDVDTKASCYDGRGLSYRGLARTTLSGAPCQPWASEATYRNVTAEQARNWGLGGHAFCRNPDNDIRPWCFVLNRDRLSWEYCDLAQCQTPTQAAPPTPVSPRLHVPLMPAQPAPPKPQPTTRTPPQSQTPGALPAKREQPPSLTRNGPLSCGQRLRKSLSSMTRVVGGLVALRGAHPYIAALYWGHSFCAGSLIAPCWVLTAAHCLQDRPAPEDLTVVLGQERRNHSCEPCQTLAVRSYRLHEAFSPVSYQHDLALLRLQEDADGSCALLSPYVQPVCLPSGAARPSETTLCQVAGWGHQFEGAEEYASFLQEAQVPFLSLERCSAPDVHGSSILPGMLCAGFLEGGTDACQGDSGGPLVCEDQAAERRLTLQGIISWGSGCGDRNKPGVYTDVAYYLAWIREHTVS,FXII-uPAR binding of FXII variant,uPAR [3],significantly reduced
IPPWEAPK (Synthesized FXII-derived peptide) [IPP peptide (IPPWEAPK)],binding result,[2],binds
LHVPLMPAQPAPPK (Synthesized FXII-derived peptide) [LHV peptide (LHVPLMPAQPAPPK)],binding result,[2],binds

# From patent US20250197838A1, “UROKINASE-TYPE PLASMINOGEN ACTIVATOR RECEPTOR BINDING PEPTIDES AND METHODS OF USE” (The United States Government as represented by the …, priority 2022, published 2025)
